Our source for the interaction score values is publication PMC10397247.

The target in test [1] is T1, 4H918-bH.
T1 chain: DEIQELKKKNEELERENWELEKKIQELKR
As to the kind of experiment: two-hybrid library CCNG1.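 Also: natural log of median RNA to DNA barcode read ratio; higher means stronger binding.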

Test [2] addresses T2, 4H3628-bH.
T2 chain: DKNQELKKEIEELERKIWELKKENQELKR
The test is described as follows: two-hybrid library CCNG1.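 Also: natural log of median RNA to DNA barcode read ratio; higher means stronger binding.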

Test [3] addresses T3, 4H626-bH.
T3 chain: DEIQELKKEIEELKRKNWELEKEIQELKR
As to the kind of experiment: two-hybrid library CCNG1.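 Also: natural log of median RNA to DNA barcode read ratio; higher means stronger binding.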

The target in test [4] is T4, 4H906-bH.
T4 chain: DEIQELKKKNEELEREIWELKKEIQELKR
As to the kind of experiment: two-hybrid library CCNG1.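 Also: natural log of median RNA to DNA barcode read ratio; higher means stronger binding.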

The target of test [5] is T5, 4H3497-bH.
T5 chain: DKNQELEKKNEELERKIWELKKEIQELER
As to the kind of experiment: two-hybrid library CCNG1.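 Also: natural log of median RNA to DNA barcode read ratio; higher means stronger binding.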

Test [6] deals with T6, 4H3175-bH.
T6 chain: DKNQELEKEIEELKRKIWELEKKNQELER
The test is described as follows: two-hybrid library CCNG1.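 Also: natural log of median RNA to DNA barcode read ratio; higher means stronger binding.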

In test [7] the target is T7, 4H3298-bH.
T7 chain: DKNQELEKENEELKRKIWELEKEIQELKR
As to the kind of experiment: two-hybrid library CCNG1.

In test [8] the target is T8, 4H3462-bH.
T8 chain: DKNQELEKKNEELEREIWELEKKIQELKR
The test is described as follows: two-hybrid library CCNG1.

The target in test [9] is T9, 4H3613-bH.
T9 chain: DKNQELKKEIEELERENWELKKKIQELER
As to the kind of experiment: two-hybrid library CCNG1.

For test [10], the target named is T10, 4H3277-bH.
T10 chain: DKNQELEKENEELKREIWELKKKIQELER
As to the kind of experiment: two-hybrid library CCNG1.

Test [11] concerns the target T11, 4H591-bH.
T11 chain: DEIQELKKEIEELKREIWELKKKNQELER
The test is described as follows: two-hybrid library CCNG1.

Test [12] deals with T12, 4H3926-bH.
T12 chain: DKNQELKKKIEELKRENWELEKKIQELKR
The test is described as follows: two-hybrid library CCNG1.

The target in test [13] is T13, O6-bP.
T13 chain: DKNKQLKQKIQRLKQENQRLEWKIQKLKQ
As to the kind of experiment: two-hybrid library CCNG1.

Test [14] concerns the target T14, O2-bP.
T14 chain: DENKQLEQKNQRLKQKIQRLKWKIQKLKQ
As to the kind of experiment: two-hybrid library CCNG1.

For test [15], the target named is T15, O4-bP.
T15 chain: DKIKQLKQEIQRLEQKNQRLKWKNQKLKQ
As to the kind of experiment: two-hybrid library CCNG1.

Test [16] has as its target T16, O3-bP.
T16 chain: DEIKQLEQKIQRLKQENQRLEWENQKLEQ
As to the kind of experiment: two-hybrid library CCNG1.

Test [17] addresses T17, O5-bP.
T17 chain: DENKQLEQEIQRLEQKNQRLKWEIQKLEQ
The test is described as follows: two-hybrid library CCNG1.

Test [18] addresses T18, O8-bP.
T18 chain: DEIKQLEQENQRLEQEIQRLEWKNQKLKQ
As to the kind of experiment: two-hybrid library CCNG1.

The target of test [19] is T19, O7-bP.
T19 chain: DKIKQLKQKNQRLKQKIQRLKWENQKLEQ
The test is described as follows: two-hybrid library CCNG1.

Test [20] concerns the target T20, O9-bP.
T20 chain: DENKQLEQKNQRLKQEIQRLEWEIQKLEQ
As to the kind of experiment: two-hybrid library CCNG1.

Test [21] deals with T21, 4H380-AA.
T21 chain: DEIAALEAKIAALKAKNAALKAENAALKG
As to the kind of experiment: two-hybrid library CCmax. The settings on record: mean of both orientations.

For test [22], the target named is T22, 4H2774-AA.
T22 chain: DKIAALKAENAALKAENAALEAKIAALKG
As to the kind of experiment: two-hybrid library CCmax. Conditions: mean of both orientations.

Test [23] concerns the target T23, 4H2760-AA.
T23 chain: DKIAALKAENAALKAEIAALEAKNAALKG
The test is described as follows: two-hybrid library CCmax. The settings on record: mean of both orientations.

Test [24] has as its target T24, 4H2903-AA.
T24 chain: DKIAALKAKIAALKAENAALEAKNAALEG
As to the kind of experiment: two-hybrid library CCmax. The settings on record: mean of both orientations.

The target in test [25] is T25, 4H2604-AA.
T25 chain: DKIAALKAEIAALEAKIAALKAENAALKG
As to the kind of experiment: two-hybrid library CCmax. Conditions: mean of both orientations.

The target in test [26] is T26, 4H3777-AA.
T26 chain: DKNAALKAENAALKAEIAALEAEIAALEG
As to the kind of experiment: two-hybrid library CCmax. The settings on record: mean of both orientations.

The target in test [27] is T27, 4H3619-AA.
T27 chain: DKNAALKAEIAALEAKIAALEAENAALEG
The test is described as follows: two-hybrid library CCmax. The settings on record: mean of both orientations.

Test [28] addresses T28, 4H235-AA.
T28 chain: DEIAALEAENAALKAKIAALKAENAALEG
As to the kind of experiment: two-hybrid library CCmax.

In test [29] the target is T29, 4H3094-AA.
T29 chain: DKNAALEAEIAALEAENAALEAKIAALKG
As to the kind of experiment: two-hybrid library CCmax. Conditions: mean of both orientations.

The target of test [30] is T30, 4H2947-AA.
T30 chain: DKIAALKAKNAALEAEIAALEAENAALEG
As to the kind of experiment: two-hybrid library CCmax. Conditions: mean of both orientations.

Test [31] addresses T31, 4H324-AA.
T31 chain: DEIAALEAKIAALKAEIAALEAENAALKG
The test is described as follows: two-hybrid library CCmax. Conditions: mean of both orientations.

Test [32] deals with T32, 4H2621-AA.
T32 chain: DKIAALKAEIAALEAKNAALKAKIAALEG
The test is described as follows: two-hybrid library CCmax. Conditions: mean of both orientations.

Test [33] has as its target T33, 4H249-AA.
T33 chain: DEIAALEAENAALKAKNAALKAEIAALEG
As to the kind of experiment: two-hybrid library CCmax. The settings on record: mean of both orientations.

Test [34] concerns the target T34, 4H63-AA.
T34 chain: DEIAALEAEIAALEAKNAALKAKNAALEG
As to the kind of experiment: two-hybrid library CCmax. Conditions: mean of both orientations.

Test [35] has as its target T35, 4H446-AA.
T35 chain: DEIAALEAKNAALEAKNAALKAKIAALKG
The test is described as follows: two-hybrid library CCmax. Conditions: mean of both orientations.

Test [36] addresses T36, 4H432-AA.
T36 chain: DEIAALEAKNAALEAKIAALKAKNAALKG
The test is described as follows: two-hybrid library CCmax. The settings on record: mean of both orientations.

Test [37] addresses T37, 4H3629-AA.
T37 chain: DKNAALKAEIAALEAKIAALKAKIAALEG
As to the kind of experiment: two-hybrid library CCmax. The settings on record: mean of both orientations.

Test [38] concerns the target T38, 4H341-AA.
T38 chain: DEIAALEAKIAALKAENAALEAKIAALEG
The test is described as follows: two-hybrid library CCmax. The settings on record: mean of both orientations.

Test [39] deals with T39, 4H2580-AA.
T39 chain: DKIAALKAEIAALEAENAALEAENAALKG
As to the kind of experiment: two-hybrid library CCmax. Conditions: mean of both orientations.

Test [40] concerns the target T40, 4H3974-AA.
T40 chain: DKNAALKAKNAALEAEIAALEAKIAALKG
The test is described as follows: two-hybrid library CCmax. Conditions: mean of both orientations.

Test [41] has as its target T41, 4H3449-AA.
T41 chain: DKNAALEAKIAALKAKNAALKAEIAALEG
The test is described as follows: two-hybrid library CCmax. The settings on record: mean of both orientations.

Test [42] has as its target T42, 4H3915-AA.
T42 chain: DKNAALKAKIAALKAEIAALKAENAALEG
As to the kind of experiment: two-hybrid library CCmax. The settings on record: mean of both orientations.

In test [43] the target is T43, 4H2961-AA.
T43 chain: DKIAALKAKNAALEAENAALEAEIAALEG
The test is described as follows: two-hybrid library CCmax. Conditions: mean of both orientations.

The target of test [44] is T44, 4H3049-AA.
T44 chain: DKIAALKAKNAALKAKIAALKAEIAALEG
As to the kind of experiment: two-hybrid library CCmax. The settings on record: mean of both orientations.

The target of test [45] is T45, P5A.
T45 chain: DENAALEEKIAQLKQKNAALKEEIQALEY
As to the kind of experiment: two-hybrid library CCNG1.

In test [46] the target is T46, P9A.
T46 chain: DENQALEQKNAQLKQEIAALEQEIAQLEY
As to the kind of experiment: two-hybrid library CCNG1.

In test [47] the target is T47, P6A.
T47 chain: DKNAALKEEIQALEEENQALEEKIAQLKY
As to the kind of experiment: two-hybrid library CCNG1. The settings on record: mean of both orientations.

Test [48] concerns the target T48, P8A.
T48 chain: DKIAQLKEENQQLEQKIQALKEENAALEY
The test is described as follows: two-hybrid library CCNG1.

For test [49], the target named is T49, P7A.
T49 chain: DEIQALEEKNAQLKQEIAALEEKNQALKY
The test is described as follows: two-hybrid library CCNG1.

With DKNQELEKEIEELKRKIWELEKKNQELER [4H3175-bH], the interaction score in test [1] is -1.69; in test [2], -0.799; in test [3], -1.62; in test [4], 0.787; in test [5] it was 0.402; in [6], 0.103. Moreover, the interaction score in test [7] was -0.132; in [8], 0.891; in test [9] it was -0.475; in test [10], -0.0103; in test [11], -2.15; in test [12], -0.189.

DENKQLEQKNQRLKQKIQRLKWKIQKLKQ [O2-bP]: the interaction score was -0.766 in test [13]; -1.2 in [14]; -0.811 in [15]; -0.635 in test [16]; -0.804 in [17]; -1.21 in [18]. The figures for the interaction score in test [19] and in test [20] were -0.723 and -1.4, respectively.

In the case of DEIAALEAENAALKAKIAALKAENAALEG [4H235-AA], the interaction score in test [21] was -1.71; in test [22], 1.48; in [23], 2.27; in test [24], -1.68; in test [25], -1.14; in test [26], 0.00925. Moreover, the interaction score in test [27] is -1.48; in test [28], -1.14; in [29] it was 0.0844; in test [30], 0.136; in test [31], -1.12; in test [32] it was -0.985. In addition, the interaction score was -1.7 in [33]; -1.28 in test [34]; -1.78 in test [35]; -0.27 in test [36]; -1.09 in test [37]; -0.261 in test [38]. The interaction score in test [39] is -0.865; in test [40], -0.571; in test [41], 0.816; in [42] it was -1.49; in test [43], -1.27; in [44] it was -0.98.

For the molecule DENAALEEKIAQLKQKNAALKEEIQALEY [P5A], the interaction score was -1.41 in [45]; -1.38 in test [46]; 1.19 in test [47]; -1.04 in test [48]; -1.31 in test [49].
